Measurements as given in patent CN114349855A (BAISIS MEDICAL DIAGNOSIS SCIENCE AND TECH BEIJING LIMITED …, dated 2022).

B1: 抗体 克隆号9A5F6 23F1 (antibody, V domains shown)
VH: QVQLVESGGGVVQPGRSLRLSCAASGFTFSSYAMYWVRQAPGKGLECVAGISYDGSNKYYADSVKGRFTISRENSKNTLYLQMNSLISEDTAVYYCARAEWDYWGQGTLVTVSS
VL: SYELTQPSSVSVSPGQTARITCSGDVLAKKYARWFQQKPGQAPVLVIYKDSERPSGIPERFSGSSSGTTVTLTISGAQVEDEADYYCYSAADNNLGVFGGGTKL
B2: 抗体 克隆号7D7G3D4 (antibody, V domains shown)
VH: EVQLVESGGGLVQPGGSLRLSCAASGLTVSSNHMSWVRQAPGKGLEWVSIIYSGGSTYYADSVKGRFTISRDNSKNTLYLQMDSLRAEDTTVYYCARAQGGWELPGAGYYYFNGMDFWGQGTTVTVSS
VL: DIQMTQSPSSLSASVGDRVTITCRASQSISTYLNWYQQKPGKAPKLLIYAASNLQSGVPSRFSGSASGTDFTLTISSLQPEDFATYFCQQSYSTSFTFGPGTKVDIK
B3: 抗体 克隆号9A5D9 22G3 (antibody, V domains shown)
VH: EVQLVESGGGLVKPGGSLRLSCAASGFTFSSYSMNWVRQAPGKGLEWVSSISRSSSYIYYADSVMGRFTISRDNAKNSLYLQMNSLRADDTAVYYCARDRGSGNYYVDGLDIWGQGTMVTVSS
VL: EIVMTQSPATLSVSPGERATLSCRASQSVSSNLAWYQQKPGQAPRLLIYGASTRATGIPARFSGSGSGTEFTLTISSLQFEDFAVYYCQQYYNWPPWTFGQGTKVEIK

Biological target: T1, 新型冠状病毒Alpha Spike蛋白 (新型冠状病毒 (SARS-CoV-2) Alpha突变株, UniProt P0DTC2 16-1213)
T1 construct: also called Alpha的S蛋白
Test: ELISA, S protein coated at 2 μg/mL

Row | Binder | binding result
1 | B1 | no binding (tested: 1 μg/mL)
2 | B2 | no binding (tested: 1 μg/mL)
3 | B3 | no binding (tested: 1 μg/mL)

Biological target: T2, 新型冠状病毒Beta Spike蛋白 (新型冠状病毒 (SARS-CoV-2) Beta突变株, UniProt P0DTC2 16-1213)
T2 construct: also called Beta的S蛋白
Test: ELISA, S protein coated at 2 μg/mL

Row | Binder | binding result
4 | B1 | no binding (tested: 1 μg/mL)
5 | B2 | no binding (tested: 1 μg/mL)
6 | B3 | no binding (tested: 1 μg/mL)

Biological target: T3, 新型冠状病毒Gamma Spike蛋白 (新型冠状病毒 (SARS-CoV-2) Gamma突变株, UniProt P0DTC2 16-1213)
T3 construct: also called Gamma的S蛋白
Test: ELISA, S protein coated at 2 μg/mL

Row | Binder | binding result
7 | B1 | no binding (tested: 1 μg/mL)
8 | B2 | no binding (tested: 1 μg/mL)
9 | B3 | no binding (tested: 1 μg/mL)
